Test results published in US10329331B2, “Polypeptides” (priority 2010, dated 2019).

What was measured:
[1] = tested on: CD3+ CD4+ T cells in peripheral blood mononuclear cells (PBMC)
[2] = Small animal PET whole body distribution of 68Ga-labeled polypeptide; assay type: in vivo; details: rat, after intravenous injection, PET over […]
Experimental: The labeling mixture was incubated at 90° C. for 15 min before cooling, and the labeled protein was isolated by size exclusion purification on a NAP-5 column eluted with physiologically buffered saline.
A rat (277 g) was anesthetized with isoflurane (initially 5%, then 2% blended with 7:3 air/O2), controlled by an E-Z vaporizer using Microflex non-rebreather masks from Euthanex Corporation, and was kept on a heating pad (37° C.) while lying within a microPET Focus120 system (Siemens, CTI Concorde Microsystems). ^68Ga-PEP08296, 33 MBq, was dispensed in a syringe, diluted with saline to 0.5 ml and injected via the tail vein. Data were acquired from the whole body by moving the bed in a constant bed motion protocol for 1.5 h. Data were processed with MicroPET Manager and corrected for randoms, dead time and decay. Images were reconstructed by standard 2D filtered back projection using a ramp filter and evaluated using Inveon Research Workplace (Siemens Medical Solutions) software.

[3] = tested on: IgG molecules present in normal human sera; test: Serum response analysis: ELISA of human serum IgG binding to albumin binding polypeptides; details: 126 positive sera diluted 50 times; polypeptide 2 μg/ml on albumin coated plates
Experimental: Each serum sample was tested as a singlet.

[4] = physchem; assay type: physicochemical
Experimental: Amicon Ultra centrifugal filter units, cut off of 3 kDa, (Millipore, Cat. No. UFC800324) were prerinsed with 2 ml NaPi buffer by centrifugation at 4000 g for 20 min in a swinging bucket rotor centrifuge (Multifuge, Heraeus). […] A 25 μl sample was removed (UF sample 1) for further analysis and the rest of the sample was transferred to a second centrifugal filter unit. The centrifugation and sample removal were repeated three times with spinning times of 8, 9 and 20 min respectively (UF sample 2, 3 and 4 respectively). Absorbance readings were performed using a NANODROP ND-1000 Spectrophotometer and by diluting UF samples 1-4 in NaPi buffer 2, 4, 6 and 12 times respectively. The concentrations were calculated using the extinction coefficient 1 Abs 280=1.955 mg/ml. Gel filtration was performed on a 1100 HPLC system (Agilent Technologies) using a Superdex75 10/300 GL column (GE Healthcare) which had been equilibrated in NaPi buffer. 10 μl of each UF sample were applied to the column; NaPi buffer was used as running buffer and the flow rate was 0.5 ml/min. A chromatogram of the molecular weight standard ovalbumin (GE Healthcare), injected at a concentration of 5 mg/ml was collected as well. Concentrations were determined by integrating the area under the curve.

In the case of `CC[C@H](C)[C@H](NC(=O)[C@H](C)NC(=O)[C@H](CC(=O)O)NC(=O)[C@H](CCCCN)NC(=O)[C@H](CC(C)C)NC(=O)[C@H](C)NC(=O)[C@H](CCC(=O)O)NC(=O)[C@@H](NC(=O)CNC(=O)[C@H](CCC(=O)O)NC(=O)[C@@H](NC(=O)[C@@H](NC(=O)[C@H](CCCCN)NC(=O)[C@H](C)NC(=O)[C@H](CCCCN)NC(=O)[C@H](CC(=O)O)NC(=O)[C@@H](NC(=O)[C@H](CC(C)C)NC(=O)[C@H](CCCNC(=N)N)NC(=O)[C@H](CCCCN)NC(=O)[C@H](Cc1ccc(O)cc1)NC(=O)[C@H](Cc1ccccc1)NC(=O)[C@H](CC(=O)O)NC(=O)[C@H](CO)NC(=O)[C@@H](NC(=O)CNC(=O)[C@H](Cc1ccc(O)cc1)NC(=O)[C@H](CSC1CC(=O)N(CCNC(=O)CN2CCN(CC(=O)O)CCN(CC(=O)O)CCN(CC(=O)O)CC2)C1=O)NC(=O)[C@H](CC(=O)O)NC(=O)[C@H](CC(C)C)NC(=O)[C@H](CCC(=O)O)NC(=O)[C@H](C)NC(=O)[C@H](CC(N)=O)NC(=O)[C@H](C)NC(=O)[C@H](C)NC(=O)[C@H](CCC(=O)O)NC(=O)[C@H](CCCCN)NC(=O)[C@H](C)NC(=O)[C@H](CO)NC(=O)[C@H](C)NC(=O)[C@H](CC(C)C)NC(=O)CN)C(C)C)[C@@H](C)CC)[C@@H](C)O)C(C)C)C(C)C)C(=O)N[C@@H](CC(C)C)C(=O)N[C@@H](C)C(=O)N[C@@H](C)C(=O)N[C@@H](CC(C)C)C(=O)N1CCC[C@H]1C(=O)O` (stereo partly drawn) [PEP07968], the immunogenicity classification [1] was “non-immunogenic”.
In the case of `CC[C@H](C)[C@H](NC(=O)[C@H](C)NC(=O)[C@H](CC(=O)O)NC(=O)[C@H](CCCCN)NC(=O)[C@H](CC(C)C)NC(=O)[C@H](C)NC(=O)[C@H](CCC(=O)O)NC(=O)[C@@H](NC(=O)CNC(=O)[C@H](CCC(=O)O)NC(=O)[C@@H](NC(=O)[C@@H](NC(=O)[C@H](CCCCN)NC(=O)[C@H](C)NC(=O)[C@H](CCCCN)NC(=O)[C@H](CC(=O)O)NC(=O)[C@@H](NC(=O)[C@H](CC(C)C)NC(=O)[C@H](CCCNC(=N)N)NC(=O)[C@H](CCCCN)NC(=O)[C@H](Cc1ccc(O)cc1)NC(=O)[C@H](Cc1ccccc1)NC(=O)[C@H](CC(=O)O)NC(=O)[C@H](CO)NC(=O)[C@@H](NC(=O)CNC(=O)[C@H](Cc1ccc(O)cc1)NC(=O)[C@H](CSC1CC(=O)N(CCNC(=O)CN2CCN(CC(=O)O)CCN(CC(=O)O)CCN(CC(=O)O)CC2)C1=O)NC(=O)[C@H](CC(=O)O)NC(=O)[C@H](CC(C)C)NC(=O)[C@H](CCC(=O)O)NC(=O)[C@H](C)NC(=O)[C@H](CC(N)=O)NC(=O)[C@H](C)NC(=O)[C@H](C)NC(=O)[C@H](CCC(=O)O)NC(=O)[C@H](CCCCN)NC(=O)[C@H](C)NC(=O)[C@H](CCC(=O)O)NC(=O)[C@H](C)NC(=O)[C@H](CC(C)C)NC(=O)[C@H](CO)NC(=O)CN)C(C)C)[C@@H](C)CC)[C@@H](C)O)C(C)C)C(C)C)C(=O)N[C@@H](CC(C)C)C(=O)N[C@@H](C)C(=O)N[C@@H](C)C(=O)N[C@@H](CC(C)C)C(=O)N1CCC[C@H]1C(=O)NCC(=O)O` (single isomer, unassigned) [^68Ga-PEP08296, metal not drawn], the plasma clearance [2] was “very slow”.
With `CC[C@H](C)[C@H](NC(=O)[C@H](Cc1c[nH]cn1)NC(=O)[C@H](CC(C)C)NC(=O)[C@H](CCCCN)NC(=O)[C@H](CC(C)C)NC(=O)[C@H](C)NC(=O)[C@H](CCC(=O)O)NC(=O)[C@@H](NC(=O)CNC(=O)[C@H](CCC(=O)O)NC(=O)[C@@H](NC(=O)[C@@H](NC(=O)[C@H](CCCCN)NC(=O)[C@H](C)NC(=O)[C@H](CCCCN)NC(=O)[C@H](CC(N)=O)NC(=O)[C@@H](NC(=O)[C@H](CC(C)C)NC(=O)[C@H](CCCNC(=N)N)NC(=O)[C@H](CCCCN)NC(=O)[C@H](Cc1ccc(O)cc1)NC(=O)[C@H](Cc1ccccc1)NC(=O)[C@H](CC(=O)O)NC(=O)[C@H](CO)NC(=O)[C@@H](NC(=O)CNC(=O)[C@H](Cc1ccc(O)cc1)NC(=O)[C@H](CCCCN)NC(=O)[C@H](CC(=O)O)NC(=O)[C@H](CC(C)C)NC(=O)[C@H](CCC(=O)O)NC(=O)[C@H](CCCNC(=N)N)NC(=O)[C@H](CC(N)=O)NC(=O)[C@H](C)NC(=O)[C@H](CC(C)C)NC(=O)[C@@H](NC(=O)[C@H](CCCCN)NC(=O)[C@H](C)NC(=O)[C@H](CCC(=O)O)NC(=O)[C@H](C)NC(=O)[C@H](CC(C)C)NC(=O)[C@H](CO)NC(=O)[C@H](CO)NC(=O)CN)C(C)C)C(C)C)[C@@H](C)CC)[C@@H](C)O)C(C)C)C(C)C)C(=O)N[C@@H](CC(C)C)C(=O)N[C@@H](C)C(=O)N[C@@H](C)C(=O)N[C@@H](CC(C)C)C(=O)N1CCC[C@H]1C(=O)O` [PEP06923] the “reactivity with IgG in human sera (average OD-value, percentage of sera with IgG binding)” value [3] was “highest average OD-value and the highest percentage of serum with IgG binding”.
For `CC[C@H](C)[C@H](NC(=O)[C@H](C)NC(=O)[C@H](CC(=O)O)NC(=O)[C@H](CCCCN)NC(=O)[C@H](CC(C)C)NC(=O)[C@H](C)NC(=O)[C@H](CCC(=O)O)NC(=O)[C@@H](NC(=O)CNC(=O)[C@H](CCC(=O)O)NC(=O)[C@@H](NC(=O)[C@@H](NC(=O)[C@H](CCCCN)NC(=O)[C@H](C)NC(=O)[C@H](CCCCN)NC(=O)[C@H](CC(=O)O)NC(=O)[C@@H](NC(=O)[C@H](CC(C)C)NC(=O)[C@H](CCCNC(=N)N)NC(=O)[C@H](CCCCN)NC(=O)[C@H](Cc1ccc(O)cc1)NC(=O)[C@H](Cc1ccccc1)NC(=O)[C@H](CC(=O)O)NC(=O)[C@H](CO)NC(=O)[C@@H](NC(=O)CNC(=O)[C@H](Cc1ccc(O)cc1)NC(=O)[C@H](CO)NC(=O)[C@H](CC(=O)O)NC(=O)[C@H](CC(C)C)NC(=O)[C@H](CCC(=O)O)NC(=O)[C@H](C)NC(=O)[C@H](CC(N)=O)NC(=O)[C@H](C)NC(=O)[C@H](C)NC(=O)[C@H](CCC(=O)O)NC(=O)[C@H](CCCCN)NC(=O)[C@H](C)NC(=O)[C@H](CCC(=O)O)NC(=O)[C@H](C)NC(=O)[C@H](CC(C)C)NC(=O)[C@H](CO)NC(=O)CN)C(C)C)[C@@H](C)CC)[C@@H](C)O)C(C)C)C(C)C)C(=O)N[C@@H](CC(C)C)C(=O)N[C@@H](C)C(=O)N[C@@H](C)C(=O)N[C@@H](CC(C)C)C(=O)N1CCC[C@H]1C(=O)O` [PEP07986], the solubility ([4]; pH 7.2) was “more than 42 mg/ml” and the solubility ([4]; pH 7.2, aqueous buffer) was no less than 42 mg/mL.
In the case of `CC[C@H](C)[C@H](NC(=O)[C@H](C)NC(=O)[C@H](CC(=O)O)NC(=O)[C@H](CCCCN)NC(=O)[C@H](CC(C)C)NC(=O)[C@H](C)NC(=O)[C@H](CCC(=O)O)NC(=O)[C@@H](NC(=O)CNC(=O)[C@H](CCC(=O)O)NC(=O)[C@@H](NC(=O)[C@@H](NC(=O)[C@H](CCCCN)NC(=O)[C@H](C)NC(=O)[C@H](CCCCN)NC(=O)[C@H](CC(=O)O)NC(=O)[C@@H](NC(=O)[C@H](CC(C)C)NC(=O)[C@H](CCCNC(=N)N)NC(=O)[C@H](CCCCN)NC(=O)[C@H](Cc1ccc(O)cc1)NC(=O)[C@H](Cc1ccccc1)NC(=O)[C@H](CC(=O)O)NC(=O)[C@H](CO)NC(=O)[C@@H](NC(=O)CNC(=O)[C@H](Cc1ccc(O)cc1)NC(=O)[C@H](CO)NC(=O)[C@H](CC(=O)O)NC(=O)[C@H](CC(C)C)NC(=O)[C@H](CCC(=O)O)NC(=O)[C@H](C)NC(=O)[C@H](CC(N)=O)NC(=O)[C@H](C)NC(=O)[C@H](C)NC(=O)[C@H](CCC(=O)O)NC(=O)[C@H](CCCCN)NC(=O)[C@H](C)NC(=O)[C@H](CCC(=O)O)NC(=O)[C@H](C)NC(=O)[C@H](CC(C)C)NC(=O)CN)C(C)C)[C@@H](C)CC)[C@@H](C)O)C(C)C)C(C)C)C(=O)N[C@@H](CC(C)C)C(=O)N[C@@H](C)C(=O)N[C@@H](C)C(=O)N[C@@H](CC(C)C)C(=O)N1CCC[C@H]1C(=O)O` [PEP07914], the immunogenicity classification [1] was “non-immunogenic”.
